Experimental findings from US20030026781A1 (MITOKOR, published 2003) are described below.

Holding throughout (assay): cell-based or functional assay
For experiment [1], the target named is purified F1-ATPase subcomplex isolated from bovine cardiac samples (bovine, UniProt P19483 44-553; P00829 47-528; P05631 26-297; P05630 23-168; P05632 2-51).
Experiment [2] concerns the target purified F0-F1 ATPase complex isolated from bovine cardiac samples (bovine, UniProt P19483 44-553; P00829 47-528; P05631 26-297; P05630 23-168; P05632 2-51).
Experiment [3] has as its target F0-F1-ATPase in rat ASMPs (alkaline submitochondrial particles) prepared from rat cardiac samples (rat, UniProt P15999 44-553; P10719 47-529; P35435 1-272; P35434 23-168; P29418 2-51).
For experiment [4], the target named is mitochondrial ATP synthase (ETC Complex V) ATPase in rat liver submitochondrial particles (SMP) (rat, UniProt P15999 44-553; P10719 47-529; P35435 1-273; P35434 23-168; P29418 2-51).

As for FGKREKAEEDRYFREKTREQLAALK [IF1(22-46) synthetic polypeptide, amino acids 22-46 of the mature form of rat IF1], the “IC50, inhibition of ATP hydrolysis by purified F1-ATPase” value in experiment [1] was approximately 1390 nM.
With LAALKKHHEDEIDHHSK [IF1(42-58) synthetic polypeptide, amino acids 42-58 of the mature form of rat IF1], the “IC50, inhibition of ATP hydrolysis by purified F0-F1-ATPase” value in experiment [2] is approximately 180 nM. In addition, the “IC50, inhibition of F0-F1-ATPase in rat ASMPs” value in experiment [3] is approximately 2500 nM. Also, the “IC50, inhibition of ATP hydrolysis by purified F1-ATPase” value in experiment [1] is approximately 870 nM.
In the case of SIREAGGAFGKREKAEEDRYFREKTREQLA [IF1 peptide 14-43 (synthetic peptide fragment of rat IF1)], the “IC50, inhibition of oligomycin-sensitive ATPase in rat liver SMP” value in experiment [4] was more than 1500 nM.
On the same count and under the same terms, under SIREAGGAFGKREKAEEDRYFREKTREQL [IF1 peptide 14-42 (synthetic peptide fragment of rat IF1)] stands more than 2600 nM.
